The series concerns Escherichia coli TOP10. Briefly: shrunken log2 fold change of peptide-encoding DNA abundance (4.5 h post-induction vs induction); higher = less antimicrobial activity (less host growth inhibition). The following applies: time post-induction: 4.5 h; library: site-saturation at positions 5, 18, 19, 20.

The values that follow come from the supplement of paper PMC9112550, “Optimization of the antimicrobial peptide Bac7 by deep mutational scanning” (BMC Biology, 2022).
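Further: peptides expressed intracellularly from a pBAD plasmid library in pooled LB shake-flask culture, induced with 0.3% L-arabinose, DNA abundance read by NGS, three biological replicates, DESeq2 with apeglm shrinkage.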

As for RRIRQRPPRLPRPRPRPLDHPRP, the “shrunken log2 fold change” value was -0.198. Regarding RRIRQRPPRLPRPRPRPALTPRP, the “shrunken log2 fold change” value was determined as 0.128. On to RRIRDRPPRLPRPRPRPCRPPRP, for which the “shrunken log2 fold change” value came out at 0.0754.

Turning to RRIRCRPPRLPRPRPRPTPTPRP, the “shrunken log2 fold change” value stood at 0.982.

Turning to RRIRDRPPRLPRPRPRPCMPPRP, the “shrunken log2 fold change” value is 0.0198.

Take RRIRTRPPRLPRPRPRPREQPRP: the “shrunken log2 fold change” value was found to be 0.198. For RRIRLRPPRLPRPRPRPYIKPRP, the “shrunken log2 fold change” value is -0.882. The same measure for RRIRMRPPRLPRPRPRPFCMPRP: -0.33. Next, RRIRVRPPRLPRPRPRPMKCPRP: -0.00104. The same measure for RRIRWRPPRLPRPRPRPKMIPRP: -0.22; for RRIRQRPPRLPRPRPRPAMQPRP: 0.109; for RRIRTRPPRLPRPRPRPLAFPRP: 2.19. For the sequence RRIRSRPPRLPRPRPRPGPLPRP, the “shrunken log2 fold change” value was found to be 0.292.

With RRIRVRPPRLPRPRPRPPDWPRP, the “shrunken log2 fold change” value stood at 0.46. As for RRIRIRPPRLPRPRPRPWGMPRP, the “shrunken log2 fold change” value amounted to 0.0727. The same measure for RRIRARPPRLPRPRPRPSYQPRP: -0.234; for RRIRERPPRLPRPRPRPREEPRP: -0.00173. For the sequence RRIRLRPPRLPRPRPRPVTQPRP, the “shrunken log2 fold change” value is -0.323.

With RRIRSRPPRLPRPRPRPHEVPRP, the “shrunken log2 fold change” value was -0.0564.

Regarding RRIRTRPPRLPRPRPRPEKAPRP, the “shrunken log2 fold change” value came out at 0.00451.

As to RRIRPRPPRLPRPRPRPSYLPRP, the “shrunken log2 fold change” value is -0.562.

As for RRIRSRPPRLPRPRPRPDRTPRP, the “shrunken log2 fold change” value is -0.256. The same measure for RRIRLRPPRLPRPRPRPWLQPRP: 0.0325. The same measure for RRIRKRPPRLPRPRPRPNNCPRP: -0.256; for RRIRRRPPRLPRPRPRPLDLPRP: -0.158; for RRIRFRPPRLPRPRPRPWAWPRP: 0.174. The same measure for RRIRYRPPRLPRPRPRPLPKPRP: 0.116; for RRIRMRPPRLPRPRPRPWEPPRP: 0.127. For RRIRWRPPRLPRPRPRPKDLPRP, the “shrunken log2 fold change” value was -0.0295. The same measure for RRIRPRPPRLPRPRPRPNASPRP: 0.0199.

As to RRIRERPPRLPRPRPRPSRFPRP, the “shrunken log2 fold change” value was 0.17.

In the case of RRIRGRPPRLPRPRPRPSPHPRP, the “shrunken log2 fold change” value came out at 0.435. The same measure for RRIRQRPPRLPRPRPRPTSDPRP: -0.358.

RRIRERPPRLPRPRPRPYTRPRP: the “shrunken log2 fold change” value was -0.252. The same measure for RRIRQRPPRLPRPRPRPCGSPRP: -0.000687; for RRIRKRPPRLPRPRPRPKVIPRP: 0.156. Next, RRIRVRPPRLPRPRPRPYELPRP: -0.401. Take RRIRHRPPRLPRPRPRPTKMPRP: the “shrunken log2 fold change” value worked out at 0.0724. Next, RRIRWRPPRLPRPRPRPASFPRP: -0.0603; RRIRLRPPRLPRPRPRPHITPRP: -0.824; RRIRGRPPRLPRPRPRPDCCPRP: 1.34. Turning to RRIRLRPPRLPRPRPRPHFDPRP, the “shrunken log2 fold change” value is -0.212.

Regarding RRIRMRPPRLPRPRPRPNGGPRP, the “shrunken log2 fold change” value amounted to 0.112. Turning to RRIRHRPPRLPRPRPRPHMAPRP, the “shrunken log2 fold change” value is -0.0236. The same measure for RRIRARPPRLPRPRPRPQVYPRP: -0.174; for RRIRYRPPRLPRPRPRPRKTPRP: -0.00513.

RRIRWRPPRLPRPRPRPGMIPRP: the “shrunken log2 fold change” value is -0.0827. Next, RRIRSRPPRLPRPRPRPSVVPRP: -0.219; RRIRQRPPRLPRPRPRPKFKPRP: 0.0538. The same measure for RRIRVRPPRLPRPRPRPFKVPRP: -0.243. For RRIRYRPPRLPRPRPRPKDIPRP, the “shrunken log2 fold change” value is -0.109.

Take RRIRPRPPRLPRPRPRPKRYPRP: the “shrunken log2 fold change” value was 0.281. The same measure for RRIRCRPPRLPRPRPRPFVNPRP: -0.521; for RRIRKRPPRLPRPRPRPHDIPRP: 0.168; for RRIRCRPPRLPRPRPRPLYGPRP: -0.914. The same measure for RRIRTRPPRLPRPRPRPITQPRP: -0.168; for RRIRQRPPRLPRPRPRPLFHPRP: -0.733; for RRIRGRPPRLPRPRPRPLFFPRP: 0.415. Next, RRIRFRPPRLPRPRPRPLPMPRP: 0.142; RRIRTRPPRLPRPRPRPYFFPRP: -0.684. As for RRIRPRPPRLPRPRPRPNHHPRP, the “shrunken log2 fold change” value is -0.509. The same measure for RRIRARPPRLPRPRPRPYLPPRP: 0.0397; for RRIRRRPPRLPRPRPRPRTAPRP: 0.458. As to RRIRLRPPRLPRPRPRPTKIPRP, the “shrunken log2 fold change” value was found to be 0.0747. As to RRIRTRPPRLPRPRPRPKYGPRP, the “shrunken log2 fold change” value is -0.0738. In the case of RRIRQRPPRLPRPRPRPDESPRP, the “shrunken log2 fold change” value worked out at 0.0454. Next, RRIRERPPRLPRPRPRPQQRPRP: 0.0285; RRIRCRPPRLPRPRPRPATNPRP: 0.213.

RRIRKRPPRLPRPRPRPPWMPRP: the “shrunken log2 fold change” value amounted to 0.48.

RRIRQRPPRLPRPRPRPYKNPRP: the “shrunken log2 fold change” value is -1.02. The same measure for RRIRLRPPRLPRPRPRPSMPPRP: -0.4; for RRIRIRPPRLPRPRPRPHEFPRP: -0.241. Next, RRIRDRPPRLPRPRPRPIYGPRP: -0.0774; RRIRDRPPRLPRPRPRPNTSPRP: -0.284. Regarding RRIRVRPPRLPRPRPRPCGHPRP, the “shrunken log2 fold change” value came to 0.0386. Take RRIRPRPPRLPRPRPRPNDLPRP: the “shrunken log2 fold change” value was -0.111. As to RRIRKRPPRLPRPRPRPTCYPRP, the “shrunken log2 fold change” value was 0.0572.

For the sequence RRIRLRPPRLPRPRPRPYDAPRP, the “shrunken log2 fold change” value was -0.211. Take RRIRQRPPRLPRPRPRPLGLPRP: the “shrunken log2 fold change” value came to 0.103. On to RRIRQRPPRLPRPRPRPYVIPRP, for which the “shrunken log2 fold change” value is 0.0316. The same measure for RRIRQRPPRLPRPRPRPQDCPRP: -0.186; for RRIRARPPRLPRPRPRPSDEPRP: 0.324; for RRIRLRPPRLPRPRPRPDTKPRP: -0.122.

Turning to RRIRKRPPRLPRPRPRPRLQPRP, the “shrunken log2 fold change” value was determined as 0.475. Take RRIRFRPPRLPRPRPRPMQVPRP: the “shrunken log2 fold change” value was -0.228.

Consider RRIRSRPPRLPRPRPRPMCMPRP, for which the “shrunken log2 fold change” value is -0.000628. The same measure for RRIRYRPPRLPRPRPRPNNAPRP: -1.1; for RRIRGRPPRLPRPRPRPKEPPRP: 0.875; for RRIRLRPPRLPRPRPRPLLMPRP: -0.136.

Take RRIRDRPPRLPRPRPRPMIAPRP: the “shrunken log2 fold change” value was determined as 0.732. The same measure for RRIRGRPPRLPRPRPRPNRKPRP: 0.195; for RRIRLRPPRLPRPRPRPVKTPRP: -0.0565; for RRIRIRPPRLPRPRPRPHNNPRP: -0.313.

Take RRIRDRPPRLPRPRPRPFSLPRP: the “shrunken log2 fold change” value is -0.176.

Turning to RRIRDRPPRLPRPRPRPTGQPRP, the “shrunken log2 fold change” value was -0.0665. In the case of RRIRHRPPRLPRPRPRPCWMPRP, the “shrunken log2 fold change” value was -0.032. For the sequence RRIRQRPPRLPRPRPRPAWTPRP, the “shrunken log2 fold change” value was -0.177. The same measure for RRIRGRPPRLPRPRPRPYAWPRP: 0.0018; for RRIRKRPPRLPRPRPRPNGIPRP: -0.029. The same measure for RRIRYRPPRLPRPRPRPLSVPRP: -0.576; for RRIRDRPPRLPRPRPRPVCCPRP: 0.967; for RRIRFRPPRLPRPRPRPRLDPRP: 0.0416.

RRIRERPPRLPRPRPRPDMKPRP: the “shrunken log2 fold change” value turned out to be 0.0475. Next, RRIRCRPPRLPRPRPRPFPEPRP: -0.312; RRIRTRPPRLPRPRPRPILPPRP: -0.066. RRIRPRPPRLPRPRPRPALTPRP: the “shrunken log2 fold change” value turned out to be 0.241. The same measure for RRIRMRPPRLPRPRPRPMSLPRP: -0.207; for RRIRNRPPRLPRPRPRPHMMPRP: -0.326. Next, RRIRRRPPRLPRPRPRPQGVPRP: -0.159; RRIRPRPPRLPRPRPRPIGVPRP: 0.108; RRIRPRPPRLPRPRPRPLCNPRP: -0.05. The same measure for RRIRARPPRLPRPRPRPSGVPRP: -0.136; for RRIRRRPPRLPRPRPRPGLRPRP: 0.338; for RRIRGRPPRLPRPRPRPWSNPRP: -0.116. For RRIRIRPPRLPRPRPRPQVSPRP, the “shrunken log2 fold change” value was -0.21.

For the sequence RRIRHRPPRLPRPRPRPSAAPRP, the “shrunken log2 fold change” value was determined as 0.334. Next, RRIRGRPPRLPRPRPRPDNGPRP: -0.0263; RRIRQRPPRLPRPRPRPMCPPRP: 0.00821; RRIRHRPPRLPRPRPRPLWLPRP: 0.0573. The same measure for RRIRRRPPRLPRPRPRPEYCPRP: 0.0246; for RRIRDRPPRLPRPRPRPVCSPRP: 0.222; for RRIRNRPPRLPRPRPRPWMGPRP: -0.558. Consider RRIRRRPPRLPRPRPRPWRYPRP, for which the “shrunken log2 fold change” value turned out to be 0.322. Next, RRIRGRPPRLPRPRPRPFCSPRP: 0.143; RRIRRRPPRLPRPRPRPGCDPRP: 0.456.
